Test results as given in publication PMC13571933, “Active transport by cytoplasmic dynein sustains dendritic MAP2 localization in developing neurons” (The Journal of Biological Chemistry, 2026).

Columns and labels:
[1] = target: GFP-MAP2C ΔSP (human MAP2C lacking the serine/proline-rich region), expressed in HEK293 cells (human) (UniProt P11137); assay: co-IP; anti-His antibody on Dynabeads Protein G; 500 μg lysate of HEK293 cells co-expressing DHC1 and GFP-His-MAP2C; 50 mM Hepes pH 7.4, 100 mM NaCl, 2 mM EDTA, 0.5% Triton X-100; 1 h at 4 °C; blot with anti-DHC1 and anti-GFP, bands quantified with ImageJ
[2] = target: T1, microtubules (MTs), endogenous in cultured rat hippocampal neurons (rat (endogenous in hippocampal neurons), UniProt Q4QRB4 1-450, Representative alpha/beta heterodimer of a microtubule polymer (many copies). Endogenous neuronal microtubules are a mixture of tubulin isotypes. The alpha member is not told in the paper (Tuba1a assu)); assay: FRAP fitted with a reaction-diffusion simulation; as a3 but with 40 μM MT binding sites assumed; settings: partners not purified
[3] = target: T1, microtubules (MTs), endogenous in …; assay: FRAP fitted with a reaction-diffusion simulation; FRAP of GFP-MAP2C in living neurons; KD from the best fit of a VCell simulation; 75 μM MT binding sites, 25 μM GFP-MAP2C and 5 μM endogenous MAP2 assumed; kon set, koff adjusted; settings: partners not purified

## cytoplasmic dynein heavy chain 1 (DHC1), expressed from a plasmid in HEK293 cells, Q14204 1-4646
[1]
  co-immunoprecipitated DHC1 normalized to immunoprecipitated GFP-MAP2C, relative to WT (relative to the WT condition (set to 1)): 0.45

B1: GFP-MAP2C (human MAP2C tagged with AcGFP and 6xHis, wild type), expressed in cultured rat hippocampal neurons (natural protein, UniProt P11137-2 1-471, looked up)
chain: MADERKDEAKAPHWTSAPLTEASAHSHPPEIKDQGGAGEGLVRSANGFPYREDEEGAFGEHGSQGTYSNTKENGINGELTSADRETAEEVSARIVQVVTAEAVAVLKGEQEKEAQHKDQTAALPLAAEETANLPPSPPPSPASEQTVTVEEAAGGESALAPSVFKQAKDKVSDGVTKSPEKRSSLPRPSSILPPRRGVSGDRDENSFSLNSSISSSARRTTRSEPIRRAGKSGTSTPTTPGSTAITPGTPPSYSSRTPGTPGTPSYPRTPHTPGTPKSAILVPSEKKVAIIRTPPKSPATPKQLRLINQPLPDLKNVKSKIGSTDNIKYQPKGGQVQIVTKKIDLSHVTSKCGSLKNIRHRPGGGRVKIESVKLDFKEKAQAKVGSLDNAHHVPGGGNVKIDSQKLNFREHAKARVDHGAEIITQSPGRSSVASPRRLSNVSSSGSINLLESPQLATLAEDVTAALAKQGL
notes: MAP2C, low molecular weight isoform of human microtubule-associated protein 2; the 471-amino-acid isoform; Same construct as m1, other host; also called wild-type GFP-MAP2C; WT; source: cultured rat hippocampal neurons, transfected, in living cells; not shown: AcGFP, N-terminal, kept
[2]
  Kd: 1000 nM
[3]
  Kd: 4500 nM
